Laboratory results: patent US20090099029

T1: Bovine, dephosphorylated, Myelin Basic Protein (MBP), P02687
T1 chain: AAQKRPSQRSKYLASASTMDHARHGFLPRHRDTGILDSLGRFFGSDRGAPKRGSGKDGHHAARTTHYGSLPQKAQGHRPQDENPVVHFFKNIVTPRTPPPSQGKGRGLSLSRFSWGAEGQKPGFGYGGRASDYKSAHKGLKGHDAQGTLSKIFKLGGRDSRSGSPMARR

B1: MAP4K4(HGK) (protein)
chain: MANDSPAKSLVDIDLSSLRDPAGIFELVEVVGNGTYGQVYKGRHVKTGQLAAIKVMDVTEDEEEEIKLEINMLKKYSHHRNIATYYGAFIKKSPPGHDDQLWLVMEFCGAGSITDLVKNTKGNTLKEDWIAYISREILRGLAHLHIHHVIHRDIKGQNVLLTENAEVKLVDFGVSAQLDRTVGRRNTFIGTPYWMAPEVIACDENPDATYDYRSDLWSCGITAIEMAEGAPPLCDMHPMRALFLIPRNPPPRLKSKKWSKKFFSFIEGCLVKNYMQRPSTEQLLKHPFIRDQPNERQVRIQLKDHIDRTRKKRGEKDETEYEYSGSEE
B2: MAP2K3(MEK3) (protein)
chain: MSKPPAPNPTPPRNLDSRTFITIGDRNFEVEADDLVTISELGRGAYGVVEKVRHAQSGTIMAVKRIRATVNSQEQKRLLMDLDINMRTVDCFYTVTFYGALFREGDVWICMELMDTSLDKFYRKVLDKNMTIPEDILGEIAVSIVRALEHLHSKLSVIHRDVKPSNVLINKEGHVKMCDFGISGYLVDSVAKTMDAGCKPYMAPERINPELNQKGYNVKSDVWSLGITMIEMAILRFPYESWGTPFQQLKQVVEEPSPQLPADRFSPEFVDFTAQCLRKNPAERMSYLELMEHPFFTLHKTKKTDIAAFVKEILGEDS
B3: MAP3K2(MEKK2) (protein)
chain: MDDQQALNSIMQDLAVLHKASRPALSLQETRKAKSSSPKKQNDVRVKFEHRGEKRILQFPRPVKLEDLRSKAKIAFGQSMDLHYTNNELVIPLTTQDDLDKAVELLDRSIHMKSLKILLVINGSTQATNLEPLPSLEDLDNTVFGAERKKRLSIIGPTSRDRSSPPPGYIPDELHQVARNGSFTSINSEGEFIPESMDQMLDPLSLSSPENSGSGSCPSLDSPLDGESYPKSRMPRAQSYPDNHQEFSDYDNPIFEKFGKGGTYPRRYHVSYHHQEYNDGRKTFPRARRTQGTSLRSPVSFSPTDHSLSTSSGSSIFTPEYDDSRIRRRGSDIDNPTLTVMDISPPSRSPRAPTNWRLGKLLGQGAFGRVYLCYDVDTGRELAVKQVQFDPDSPETSKEVNALECEIQLLKNLLHERIVQYYGCLRDPQEKTLSIFMEYMPGGSIKDQLKAYGALTENVTRKYTRQILEGVHYLHSNMIVHRDIKGANILRDSTGNVKLGDFGASKRLQTICLSGTGMKSVTGTPYWMSPEVISGEGYGRKADIWSVACTVVEMLTEKPPWAEFEAMAAIFKIATQPTNPKLPPHVSDYTRDFLKRIFVEAKLRPSADELLRHMFVHYH
B4: MAP2K6(MKK6) (protein)
chain: MSQSKGKKRNPGLKIPKEAFEQPQTSSTPPRDLDSKACISIGNQNFEVKADDLEPIMELGRGAYGVVEKMRHVPSGQIMAVKRIRATVNSQEQKRLLMDLDISMRTVDCPFTVTFYGALFREGDVWICMELMDTSLDKFYKQVIDKGQTIPEDILGKIAVSIVKALEHLHSKLSVIHRDVKPSNVLINALGQVKMCDFGISGYLVDSVAKTIDAGCKPYMAPERINPELNQKGYSVKSDIWSLGITMIELAILRFPYDSWGTPFQQLKQVVEEPSPQLPADKFSAEFVDFTSQCLKKNSKERPTYPELMQHPFFTLHESKGTDVASFVKLILGD
B5: MAP2K6, mutant (protein)
chain: MSQSKGKKRNPGLKIPKEAFEQPQTSSTPPRDLDSKACISIGNQNFEVKADDLEPIMELGRGAYGVVEKMRHVPSGQIMAVKRIRATVNSQEQKRLLMDLDISMRTVDCPFTVTFYGALFREGDVWICMELMDTSLDKFYKQVIDKGQTIPEDILGKIAVSIVKALEHLHSKLSVIHRDVKPSNVLINALGQVKMCDFGISGYLVDEVAKEIDAGCKPYMAPERINPELNQKGYSVKSDIWSLGITMIELAILRFPYDSWGTPFQQLKQVVEEPSPQLPADKFSAEFVDFTSQCLKKNSKERPTYPELMQHPFFTLHESKGTDVASFVKLILGD
B6: MAP3K5(ASK1) (protein)
chain: MSTEADEGITFSVPPFAPSGFCTIPEGGICRRGGAAAVGEGEEHQLPPPPPGSFWNVESAAAPGIGCPAATSSSSATRGRGSSVGGGSRRTTVAYVINEASQGQLVVAESEALQSLREACETVGATLETLHFGKLDFGETTVLDRFYNADIAVVEMSDAFRQPSLFYHLGVRESFSMANNIILYCDTNSDSLQSLKEIICQKNTMCTGNYTFVPYMITPHNKVYCCDSSFMKGLTELMQPNFELLLGPICLPLVDRFIQLLKVAQASSSQYFRESILNDIRKARNLYTGKELAAELARIRQRVDNIEVLTADIVINLLLSYRDIQDYDSIVKLVETLEKLPTFDLASHHHVKFHYAFALNRRNLPGDRAKALDIMIPMVQSEGQVASDMYCLVGRIYKDMFLDSNFTDTESRDHGASWFKKAFESEPTLQSGINYAVLLLAAGHQFESSFELRKVGVKLSSLLGKKGNLEKLQSYWEVGFFLGASVLANDHMRVIQASEKLFKLKTPAWYLKSIVETILIYKHFVKLTTEQPVAKQELVDFWMDFLVEATKTDVTVVRFPVLILEPTKIYQPSYLSINNEVEEKTISIWHVLPDDKKGIHEWNFSASSVRGVSISKFEERCCFLYVLHNSDDFQIYFCTELHCKKFFEMVNTITEEKGRSTEEGDCESDLLEYDYEYDENGDRVVLGKGTYGIVYAGRDLSNQVRIAIKEIPERDSRYSQPLHEEIALHKHLKHKNIVQYLGSFSENGFIKIFMEQVPGGSLSALLRSKWGPLKDNEQTIGFYTKQILEGLKYLHDNQIVHRDIKGDNVLINTYSGVLKISDFGTSKRLAGINPCTETFTGTLQYMAPEIIDKGPRGYGKAADIWSLGCTIIEMATGKPPFYELGEPQAAMFKVGMFKVHPEIPESMSAEAKAFILKCFEPDPDKRACANDLLVDEFLKVSSKKKKTQPKLSALSAGSNEYLRSISLPVPVLVEDTSSSSEYGSVSPDTELKVDPFSFKTRAKSCGERDVKGIRTLFLGIPDENFEDHSAPPSPEEKDSGFFMLRKDSERRATLHRILTEDQDKIVRNLMESLAQGAEEPKLKWEHITTLIASLREFVRSTDRKIIATTLSKLKLELDFDSHGISQVQVVLFGFQDAVNKVLRNHNIKPHWMFALDSIIRKAVQTAITILVPELRPHFSLASESDTADQEDLDVEDDHEEQPSNQTVRRPQAVIEDAVATSGVSTLSSTVSHDSQSAHRSLNVQLGRMKIETNRLLEELVRKEKELQALLHRAIEEKDQEIKHLKLKSQPIEIPELPVFHLNSSGTNTEDSELTDWLRVNGADEDTISRFLAEDYTLLDVLYYVTRDDLKCLRLRGGMLCTLWKAIIDFRNKQT
B7: MAPK12(p38gamma) (protein)
chain: MSSPPPARSGFYRQEVTKTAWEVRAVYRDLQPVGSGAYGAVCSAVDGRTGAKVAIKKLYRPFQSELFAKRAYRELRLLKHMRHENVIGLLDVFTPDETLDDFTDFYLVMPFMGTDLGKLMKHEKLGEDRIQFLVYQMLKGLRYIHAAGIIHRDLKPGNLAVNEDCELKILDFGLARQADSEMTGYVVTRWYRAPEVILNWMRYTQTVDIWSVGCIMAEMITGKTLFKGSDHLDQLKEIMKVTGTPPAEFVQRLQSDEAKNYMKGLPELEKKDFASILTNASPLAVNLLEKMLVLDAEQRVTAGEALAHPYFESLHDTEDEPQVQKYDDSFDDVDRTLDEWKRVTYKEVLSFKPPRQLGARVSKETPL
B8: MAP3K11(MLK3) (protein)
chain: MEPLKSLFLKSPLGSWNGSGSGGGGGGGGGRPEGSPKAAGYANPVWTALFDYEPSGQDELALRKGDRVEVLSRDAAISGDEGWWAGQVGGQVGIFPSNYVSRGGGPPPCEVASFQELRLEEVIGIGGFGKVYRGSWRGELVAVKAARQDPDEDISVTAESVRQEARLFAMLAHPNIIALKAVCLEEPNLCLVMEYAAGGPLSRALAGRRVPPHVLVNWAVQIARGMHYLHCEALVPVIHRDLKSNNILLLQPIESDDMEHKTLKITDFGLAREWHKTTQMSAAGTYAWMAPEVIKASTFSKGSDVWSFGVLLWELLTGEVPYRGIDCLAVAYGVAVNKLTLPIPSTCPEPFAQLMADCWAQDPHRRPDFASILQQLEALEAQVLREMPRDSFHSMQEGWKREIQGLFDELRAKEKELLSREEELTRAAREQRSQAEQLRRREHLLAQWELEVFERELTLLLQQVDRERPHVRRRRGTFKRSKLRARDGGERISMPLDFKHRITVQASPGLDRRRNVFEVGPGDSPTFPRFRAIQLEPAEPGQAWGRQSPRRLEDSSNGERRACWAWGPSSPKPGEAQNGRRRSRMDEATWYLDSDDSSPLGSPSTPPALNGNPPRPSLEPEEPKRPVPAERGSSSGTPKLIQRALLRGTALLASLGLGRDLQPPGGPGRERGESPTTPPTPTPAPCPTEPPPSPLICFSLKTPDSPPTPAPLLLDLGIPVGQRSAKSPRREEEPRGGTVSPPPGTSRSAPGTPGTPRSPPLGLISRPRPSPLRSRIDPWSFVSAGPRPSPLPSPQPAPRRAPWTLFPDSDPFWDSPPANPFQGGPQDCRAQTKDMGAQAPWVPEAGP
B9: MAP2K2(MEK2) (protein)
chain: MLARRKPVLPALTINPTIAEGPSPTSEGASEANLVDLQKKLEELELDEQQKKRLEAFLTQKAKVGELKDDDFERISELGAGNGGVVTKVQHRPSGLIMARKLIHLEIKPAIRNQIIRELQVLHECNSPYIVGFYGAFYSDGEISICMEHMDGGSLDQVLKEAKRIPEEILGKVSIAVLRGLAYLREKHQIMHRDVKPSNILVNSRGEIKLCDFGVSGQLIDSMANSFVGTRSYMAPERLQGTHYSVQSDIWSMGLSLVELAVGRYPIPPPDAKELEAIFGRPVVDGEEGEPHSISPRPRPPGRPVSGHGMDSRPAMAIFELLDYIVNEPPPKLPNGVFTPDFQEFVNKCLIKNPAERADLKMLTNHTFIKRSEVEEVDFAGWLCKTLRLNQPGTPTRTAV
B10: MAPK11(p38B) (protein)
chain: MSGPRAGFYRQELNKTVWEVPQRLQGLRPVGSGAYGSVCSAYDARLRQKVAVKKLSRPFQSLIHARRTYRELRLLKHLKHENVIGLLDVFTPATSIEDFSEVYLVTTLMGADLNNIVKCQALSDEHVQFLVYQLLRGLKYIHSAGIIHRDLKPSNVAVNEDCELRILDFGLARQADEEMTGYVATRWYRAPEIMLNWMHYNQTVDIWSVGCIMAELLQGKALFPGSDYIDQLKRIMEVVGTPSPEVLAKISSEHARTYIQSLPPMPQKDLSSIFRGANPLAIDLLGRMLVLDSDQRVSAAEALAHAYFSQYHDPEDEPEAEPYDESVEAKERTLEEWKELTYQEVLSFKPPEPPKPPGSLEIEQ
B11: MAP3K9(MLK1) (protein)
chain: MEPSRALLGCLASAAAAAPPGEDGAGAGAEEEEEEEEEAAAAVGPGELGCDAPLPYWTAVFEYEAAGEDELTLRLGDVVEVLSKDSQVSGDEGWWTGQLNQRVGIFPSNYVTPRSAFSSRCQPGGEDPSCYPPIQLLEIDFAELTLEEIIGIGGFGKVYRAFWIGDEVAVKAARHDPDEDISQTIENVRQEAKLFAMLKHPNIIALRGVCLKEPNLCLVMEFARGGPLNRVLSGKRIPPDILVNWAVQIARGMNYLHDEAIVPIIHRDLKSSNILILQKVENGDLSNKILKITDFGLAREWHRTTKMSAAGTYAWMAPEVIRASMFSKGSDVWSYGVLLWELLTGEVPFRGIDGLAVAYGVAMNKLALPIPSTCPEPFAKLMEDCWNPDPHSRPSFTNILDQLTTIEESGFFEMPKDSFHCLQDNWKHEIQEMFDQLRAKEKELRTWEEELTRAALQQKNQEELLRRREQELAEREIDILERELNIIIHQLCQEKPRVKK

Target: T1, Bovine, dephosphorylated, Myelin Basic …

MBP Kinase Activity, Weak:
B3
B4
B6

MBP Kinase Activity, Strong:
B1
B7
B10
B11

MBP Kinase Activity, Negative:
B2
B5
B8
B9
